Measured values taken from patent US20020034770A1, “COMPOUNDS THAT INTERFERE WITH DNA REPLICATION IN RAPIDLY PRO[…] FOR USE IN CANCER THERAPY AND METHODS FOR SCREENING FOR SUCH COMPOUNDS” (priority 1996, published 2002).

Biological target: T1, Cdc6-associated kinase (Clb/Cdk1 kinases) (Saccharomyces cerevisiae, UniProt P00546)
T1 construct: 1 mg of protein extract from K4527, grown in YEPR at 25° C. or induced for 4 hours in YEPRG, was immunoprecipitated with 12CA5 Ab; endogenous in cells; host or cells: S. cerevisiae strain K4527 (W303 background, wild type, 5 copies of GAL-HA3CDC6); The kinase is endogenous; Only the Cdc6 bait is expressed from an introduced construct
Assay: Histone H1 kinase assay of Cdc6-associated kinase immunoprecipitated with 12CA5 Ab
Assay type: biochemical
Conditions: HA3Cdc6 immunoprecipitate from K4527 extract (GAL-HA3CDC6, induced 4 hours in YEPRG); FIG. 5D
Procedure: Protein extracts were prepared as in Schwob et al., 1994. For Clb2 kinase assays, […] of total proteins were immunoprecipitated using anti-Clb2 Ab (1:30, Amon et al., 1992). To assay Cdc6-associated kinase, HA3Cdc6 or Cdc6HA3 was immunoprecipitated with 12CA5 Ab (1:10) from the amounts of protein extracts indicated in figure legends. Histone Hi kinase activity was measured as previously described (Schwob et al., 1994).
D) Cdc6-associated kinase is inhibited by p40^SIC1. 1 mg of protein extract from K4527, grown in YEPR at 25° C. or induced for 4 hours in YEPRG, was immunoprecipitated with 12CA5 Ab and before the last washing step split into four aliquots. Kinase activity was measured in the absence or in the presence of the indicated amounts of purified p40^SIC1. R:Raffinose. G: Galactose. The addition of p40^SIC1 causes the appearance of two additional signals probably due to phosphorylation of p40^SIC1 by an aspecific kinase. E) Cdc28p co-immunoprecipitates with Cdc6p. Cdc6p was immunoprecipitated with 12CA5 Ab from protein extracts (5 mg) of K4527 cells grown at 25° C. in YEPR and induced for 4 hours in YEPRG. Protein A-Sepharose beads were boiled in SDS buffer and analysed by Western blot using Cdc28 Ab (1:500) ([…]. R: Raffinose. G: Galactose).

T1 sequence (P00546 whole entry): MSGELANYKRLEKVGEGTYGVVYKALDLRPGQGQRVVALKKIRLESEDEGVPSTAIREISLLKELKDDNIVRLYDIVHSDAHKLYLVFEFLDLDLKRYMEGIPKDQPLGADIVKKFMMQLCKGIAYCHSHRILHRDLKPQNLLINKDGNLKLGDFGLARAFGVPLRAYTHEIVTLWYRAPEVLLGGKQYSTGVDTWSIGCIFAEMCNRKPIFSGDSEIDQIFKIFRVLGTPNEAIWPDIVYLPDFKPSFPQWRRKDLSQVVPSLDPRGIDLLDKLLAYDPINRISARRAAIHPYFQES

B1: p40^SIC1: purified Clb-specific Cdk inhibitor protein of budding yeast, encoded by SIC1 (protein, UniProt P38634 1-284, looked up)
Protein SIC1: MTPSTPPRSRGTRYLAQPSGNTSSSALMQGQKTPQKPSQNLVPVTPSTTKSFKNAPLLAPPNSNMGMTSPFNGLTSPQRSPFPKSSVKRTLFQFESHDNGTVREEQEPLGRVNRILFPTQQNVDIDAAEEEEEGEVLLPPSRPTSARQLHLSLERDEFDQTHRKKIIKDVPGTPSDKVITFELAKNWNNNSPKNDARSQESEDEEDIIINPVRVGKNPFASDELVTQEIRNERKRAMLRENPDIEDVITYVNKKGEVVEKRRLTDEEKRRFKPKALFQSRDQEH
For B1, the “Cdc6-associated histone H1 kinase activity on addition of purified p40^SIC1” value was “inhibited”.
